Test results: the supplement of paper PMC9170038

System: MS2 coat protein
Assay: apparent KD of MS2 coat protein; designed switch direction (-1 OFF switch, 1 ON switch): -1; higher = weaker reporter binding
Procedure, shortened: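 Three titration conditions were used: no input, 200 uM small-molecule ligand, and an oligonucleotide input. In each, SNAP-549-labelled MS2 coat protein was raised from 0.7 or 1.5 nM, doubling, to 3 µM over designed RNA switches transcribed on Illumina chips by stalled E. coli RNA polymerase. Curve fits of normalised cluster fluorescence gave values whose per-design median over clusters is the apparent KD.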

[1] = Eterna round: R95, input ligand: FMN 200 uM
[2] = Eterna round: R95, input ligand: microRNA oligo, concentration not stated
[3] = Eterna round: R95, input ligand: none
[4] = input ligand: microRNA oligo, concentration not stated

Sequence	apparent KD of MS2 coat protein (input ligand: FMN 200 uM) [nM]	apparent KD of MS2 coat protein (input ligand: none) [nM]	apparent KD of MS2 coat protein [1] [nM]	apparent KD of MS2 coat protein [2] [nM]	apparent KD of MS2 coat protein [3] [nM]	apparent KD of MS2 coat protein [4] [nM]
CAGUACUGAGGAUAUACAUGAGGAUCACCCAUGUGGGAGAUACUAGUGAGGUCGAUUAGUAGAAGGCAGUACUG [Mat X3R4 m21] (Eterna round: R97, puzzle: Exclusion 3)	903	184	–	–	–	–
CAGUACUGAGGAUAUACAUGAGGAUCACCCAUGUGGUCCAGCUAGGAAACUAGCAAAAGUAGAAGGCAGUACUG [salish99_ex3_r3_083] (puzzle: Exclusion 3)	–	–	12.5	71.5	218	–
CAGUACUGAGGAUAUACAUGAGGAUCACCCAUGUGUCUAAGGUAGGAUACUACCAUUAGUAGAAGGCAGUACUG [Fiskers Ex 3 828 mod 19] (puzzle: Exclusion 3)	–	–	–	13.2	–	–
CAGUACUGAGGAUAUACAUGAGGAUCACCCAUGUGUUCCAGCUAGGAGACUAGCAAAUGUAGAAGGCAGUACUG [jl-ex3-4.02 salish99 mod] (Eterna round: R97, puzzle: Exclusion 3)	615	406	–	–	–	–
CAGUACUGAGGAUAUACAUGAGGAUCACCCAUGUGUUCCAGCUAGGAGACUAGCAAGUGUAGAAGGCAGUACUG [jl-ex3-4.01 salish99 mod] (Eterna round: R97, puzzle: Exclusion 3)	293	434	–	–	–	–
CAGUACUGAGGAUAUACAUGAGGAUCACCCAUGUGUUCCAGCUAGGAUACUAGCAAAUGUAGAAGGCAGUACUG [Mat - Exclusion 3 - Eli Mod - D8] (Eterna round: R97, puzzle: Exclusion 3)	62.9	227	–	–	–	–
CAGUACUGAGGAUAUACAUGAGGAUCACCCAUGUGUUCCGGCUAGGAUACUAGCAAAGGAAGAAGGCAGUACUG [Mat - Exclusion 3 - Eli Mod - D23] (Eterna round: R97, puzzle: Exclusion 3)	22.7	17.1	–	–	–	–
CAUAAGUGAGGAUAUCCUGGCCCUAUGCGUUAGGCGCGCUAGGAGAAGGCACAUGAGGAUCACCCAUGUCUCUC [Eternabot (L1) Solution 21] (Eterna round: R97, puzzle: Exclusion 4)	76.6	29.7	–	–	–	–
CAUACACAUGAGGAUCACCCAUGUGAGGAUAUGAAUACGUUGUCCGUAGGCGACGUGAUCAGAAGGCGCUUGGU [Mat - Mod of JL D100] (puzzle: Exclusion 1)	–	–	–	44	–	–
CAUACUAAAGUCAGGAUAUGCGGUCGAAUACGGGUGUAGAAGGGACAUGAGGAUCACCCAUGUAGAUAGUAAAG [EX-4 Malc #18] (puzzle: Brourd's mod of Exclusion 4)	–	–	93.1	90.2	129	–
CAUACUGAAGUUAGGAUAUUCGAACGUAUACGGAUGGAGAAGGGACAUGAGGAUCACCCAUGUAGAUAGUAAAG [EX-4 Malc #11] (puzzle: Brourd's mod of Exclusion 4)	–	–	23.1	21.5	23.1	–
CAUCCACAUGAGGAUCACCCAUGUCAGGAUAUUGUACAAACCCAAUCAUAUUGGGCGUCAAGAAGGGACAUUCU [EX1 B.5] (Eterna round: R97, puzzle: Exclusion 1)	22.8	12.4	–	–	–	–
CAUGAUUGGCGAGGAUAUUGAUCUAGUUGGCGACGAGAAGGCGCCUGUCACAUGAGGAUCACCCAUGUGAAUCUGGUGGAUGAG [Ex NG1 #88] (Eterna round: R96, puzzle: Exclusion NG 1)	23	23.5	–	–	–	18.4
CAUGGAACGUAGGAUAUCUCGCAGCCCGACUGCAGAGAAGGACGUACAUGAGGAUCACCCAUGUAUGAUCCAAA [Vexeoren] (puzzle: Exclusion 6)	–	–	29.2	18.1	23.3	–
CAUGGAUGUGAGCCGCAUUACAUGAGGAUCACCCAUGUCAACAAGCUUUUUGCUUAUCUUACGCGGCGGCAUCAAAA [Enisusti] (puzzle: Sensor v3, turn-off variant 1)	–	–	13.4	11.8	9.39	–
CAUGGAUGUGAGCCGCAUUACAUGAGGAUCACCCAUGUCAACAAGCUUUUUGCUUGUCUUACGCGGCGACAUCAGAA [Tiquatge] (puzzle: Sensor v3, turn-off variant 1)	–	–	11.7	8.33	10.1	–
CAUGUCCAACGAGGAUAUGGGAAAGGAAGUGUACCAGAAGGCGUACGGACAUGAGGAUCACCCAUGUCGCGCGGUGCGAUGUGG [MOD2 Nando EXNG 1.1] (Eterna round: R96, puzzle: Exclusion NG 1)	112	98.9	–	–	–	39.1

Sequence	apparent KD of MS2 coat protein (input ligand: FMN 200 uM) [nM]	apparent KD of MS2 coat protein (input ligand: none) [nM]	apparent KD of MS2 coat protein [1] [nM]	apparent KD of MS2 coat protein [2] [nM]	apparent KD of MS2 coat protein [3] [nM]	apparent KD of MS2 coat protein [4] [nM]
CAUUACUACAAGCUUGGGAACAUGAGGAUCACCCAUGUUCGUCUUAUUGAUCUAGGUACGCUGACGUACCUAGAUCU [JL-sv1-2.24 Brourd mod] (puzzle: Sensor v3, turn-off variant 1)	–	–	14.3	21.7	13.3	–
CAUUACUGCAAGCUAUGGGACAUGAGGAUCACCCAUGUUCGUCUUAUUGAUCUAGGUACGCUGACGUACCUAGAUCU [JL-sv1-2.21 Brourd mod] (puzzle: Sensor v3, turn-off variant 1)	–	–	16.3	21.4	15	–
CCAAGCUUAUUCAUUAACAACAUGAGGAUCACCCAUGUAUAGGCAAUUAUGUUUGGGCUCUUUAGUGCUCGUCUUAU [Sensor-V1 #23] (Eterna round: R97, puzzle: Sensor, turn-off variant 1)	16.1	15.5	–	–	–	–
CCAAGCUUAUUCAUUAACCACAUGAGGAUCACCCAUGUAUAGGCAAUUAUGACUGGGCCAUCUGGUGCUCGUCUUAU [Sensor-V1 #29] (Eterna round: R97, puzzle: Sensor, turn-off variant 1)	16.2	15.2	–	–	–	–
CCACGACAUGAGGAUCACCCAUGUGAGGAUAUGACCUGAAAAGCGUGAGCAGUUUGUAUCAGAAGGCGCGUAGG [salish99_ex1_r4_067] (Eterna round: R97, puzzle: Exclusion 1)	35.9	44.2	–	–	–	–
CCACUGUCAGGAUAUCGUGCAUACAACGAAAGUUCUAUGUGCGAGAAGGGACAUGAGGAUCACCCAUGUAAACG [Omei Ex4 A28] (Eterna round: R97, puzzle: Exclusion 4)	582	138	–	–	–	–
CCAGGGCACAAUUAAACGCCCUAACAUGAGGAUCACCCAUGUCAGGAUAUGUAGGCAAAGACCCUACAGAAGGGACAUGUCCUA [Xegeat] (Eterna round: R96, puzzle: Exclusion NG 3)	217	49.9	–	–	–	76.1
CCAUAUAACUGAGGAUAUACUCACCACUAACAUGUAGAAGGCAGACAUGAGGAUCACCCAUGUGAUUUCUCAAUAUUAUACAUC [Prohibition 75 - Jieux - Exclusion NG 1] (Eterna round: R96, puzzle: Exclusion NG 1)	–	–	–	–	–	500
CCAUCGAGUGUGAGGAUAUGCUGUUCCUAAGAGCAGCAGAAGGCACAUGAGGAUCACCCAUGUGGAUACGGUGG [Mat - Exclusion 4 - JL Mod - D81] (puzzle: Brourd's mod of Exclusion 4)	–	–	172	29.2	31.1	–
CCAUGAUAAGGAUAUUGAAGGUUCGACAUGAGGAUCACCCAUGUUAUGUUGGAAAAGGGACAAGAAGGUAUGAAUU [salish99_ex5_r4_220] (Eterna round: R97, puzzle: Exclusion 5)	34.7	35.1	–	–	–	–
CCCAGUUAUCAAGGAUAUUGUACAUGAGGAUCACCCAUGUAAUAAAUGAGGAUUUCGGGUGUCUACAAGAAGGUGAGGAUAGGC [Ostracism 15 - Jieux - Exclusion NG 2] (Eterna round: R96, puzzle: Exclusion NG 2)	26.6	46.4	–	–	–	22.4
CCCAGUUAUUGAGGAUAUCCUACAUGAGGAUCACCCAUGUAAUAAAUGAGGAUUUCGGGUGUCUAGGAGAAGGCAAGGAUAGGC [Ostracism 22 - Jieux - Exclusion NG 2] (Eterna round: R96, puzzle: Exclusion NG 2)	63.7	50.5	–	–	–	39.8
CCCGAUGGAUAGGAUAUCCGGCAAGUAUGCUAUGGAGAAGGGUUCACAUGAGGAUCACCCAUGUGGGUUAAACG [Eternabot (L1) Solution 74] (Eterna round: R97, puzzle: Exclusion 6)	22	19.3	–	–	–	–
CCCUCACAUGAGGAUCACCCAUGUCAGGAUAUCUCACAUCGGCCUUAGGCCGAUGUCUAGAGAAGGGACGUAUC [Ceonte] (puzzle: Exclusion 1)	–	–	–	22.9	–	–
CCCUCACUUGAGGAUCACCCAAGUCAGGAUAUCUCCCGCCCAACACCAUCCGGGCGCCAGAGAAGGGACUCAAA [Soenonor] (Eterna round: R97, puzzle: Exclusion 1)	24.4	17.5	–	–	–	–
CCCUGACAUGAGGAUCACCCAUGUUAGGAUAUAACAUUUGACACUACAGUGUGAAGUGUUAGAAGGGAUAUGGG [-27.9, -26.2 kcal, A 31%] (Eterna round: R97, puzzle: Exclusion 1)	32.4	28.7	–	–	–	–
